Patent US9657062B2, “Ghrelin analogues” (Zealand Pharma A/S, priority 2012, dated 2017)
The star is where a group is joined. Octanoyl = CCCCCCCC(=O)*; Octyl = CCCCCCCC*

B1: H-PS-S(octanoyl)-FLSPEHQRVQQRSESKKPPAKLQPR-NH2 (peptide)
peptide: H-PSS(Octanoyl)FLSPEHQRVQQRSESKKPPAKLQPR-NH2
SMILES: CCCCCCCC(=O)OC[C@H](NC(=O)[C@H](CO)NC(=O)[C@@H]1CCCN1)C(=O)N[C@@H](Cc1ccccc1)C(=O)N[C@@H](CC(C)C)C(=O)N[C@@H](CO)C(=O)N1CCC[C@H]1C(=O)N[C@@H](CCC(=O)O)C(=O)N[C@@H](Cc1c[nH]cn1)C(=O)N[C@@H](CCC(N)=O)C(=O)N[C@@H](CCCNC(=N)N)C(=O)N[C@H](C(=O)N[C@@H](CCC(N)=O)C(=O)N[C@@H](CCC(N)=O)C(=O)N[C@@H](CCCNC(=N)N)C(=O)N[C@@H](CO)C(=O)N[C@@H](CCC(=O)O)C(=O)N[C@@H](CO)C(=O)N[C@@H](CCCCN)C(=O)N[C@@H](CCCCN)C(=O)N1CCC[C@H]1C(=O)N1CCC[C@H]1C(=O)N[C@@H](C)C(=O)N[C@@H](CCCCN)C(=O)N[C@@H](CC(C)C)C(=O)N[C@@H](CCC(N)=O)C(=O)N1CCC[C@H]1C(=O)N[C@@H](CCCNC(=N)N)C(N)=O)C(C)C
B2: H-PS-S(octanoyl)-FLSPYHQRVQQRKESKKPPAKLQPR-NH2 (peptide)
peptide: H-PSS(Octanoyl)FLSPYHQRVQQRKESKKPPAKLQPR-NH2
SMILES: CCCCCCCC(=O)OC[C@H](NC(=O)[C@H](CO)NC(=O)[C@@H]1CCCN1)C(=O)N[C@@H](Cc1ccccc1)C(=O)N[C@@H](CC(C)C)C(=O)N[C@@H](CO)C(=O)N1CCC[C@H]1C(=O)N[C@@H](Cc1ccc(O)cc1)C(=O)N[C@@H](Cc1c[nH]cn1)C(=O)N[C@@H](CCC(N)=O)C(=O)N[C@@H](CCCNC(=N)N)C(=O)N[C@H](C(=O)N[C@@H](CCC(N)=O)C(=O)N[C@@H](CCC(N)=O)C(=O)N[C@@H](CCCNC(=N)N)C(=O)N[C@@H](CCCCN)C(=O)N[C@@H](CCC(=O)O)C(=O)N[C@@H](CO)C(=O)N[C@@H](CCCCN)C(=O)N[C@@H](CCCCN)C(=O)N1CCC[C@H]1C(=O)N1CCC[C@H]1C(=O)N[C@@H](C)C(=O)N[C@@H](CCCCN)C(=O)N[C@@H](CC(C)C)C(=O)N[C@@H](CCC(N)=O)C(=O)N1CCC[C@H]1C(=O)N[C@@H](CCCNC(=N)N)C(N)=O)C(C)C
B3: H-PS-S(octanoyl)-FLSPEHQRVQQSKESKKPPAKLQPR-NH2 (peptide)
peptide: H-PSS(Octanoyl)FLSPEHQRVQQSKESKKPPAKLQPR-NH2
SMILES: CCCCCCCC(=O)OC[C@H](NC(=O)[C@H](CO)NC(=O)[C@@H]1CCCN1)C(=O)N[C@@H](Cc1ccccc1)C(=O)N[C@@H](CC(C)C)C(=O)N[C@@H](CO)C(=O)N1CCC[C@H]1C(=O)N[C@@H](CCC(=O)O)C(=O)N[C@@H](Cc1c[nH]cn1)C(=O)N[C@@H](CCC(N)=O)C(=O)N[C@@H](CCCNC(=N)N)C(=O)N[C@H](C(=O)N[C@@H](CCC(N)=O)C(=O)N[C@@H](CCC(N)=O)C(=O)N[C@@H](CO)C(=O)N[C@@H](CCCCN)C(=O)N[C@@H](CCC(=O)O)C(=O)N[C@@H](CO)C(=O)N[C@@H](CCCCN)C(=O)N[C@@H](CCCCN)C(=O)N1CCC[C@H]1C(=O)N1CCC[C@H]1C(=O)N[C@@H](C)C(=O)N[C@@H](CCCCN)C(=O)N[C@@H](CC(C)C)C(=O)N[C@@H](CCC(N)=O)C(=O)N1CCC[C@H]1C(=O)N[C@@H](CCCNC(=N)N)C(N)=O)C(C)C
B4: H-PS-S(octanoyl)-FLSPEHQRVQQRKESSKPPAKLQPR-NH2 (peptide)
peptide: H-PSS(Octanoyl)FLSPEHQRVQQRKESSKPPAKLQPR-NH2
SMILES: CCCCCCCC(=O)OC[C@H](NC(=O)[C@H](CO)NC(=O)[C@@H]1CCCN1)C(=O)N[C@@H](Cc1ccccc1)C(=O)N[C@@H](CC(C)C)C(=O)N[C@@H](CO)C(=O)N1CCC[C@H]1C(=O)N[C@@H](CCC(=O)O)C(=O)N[C@@H](Cc1c[nH]cn1)C(=O)N[C@@H](CCC(N)=O)C(=O)N[C@@H](CCCNC(=N)N)C(=O)N[C@H](C(=O)N[C@@H](CCC(N)=O)C(=O)N[C@@H](CCC(N)=O)C(=O)N[C@@H](CCCNC(=N)N)C(=O)N[C@@H](CCCCN)C(=O)N[C@@H](CCC(=O)O)C(=O)N[C@@H](CO)C(=O)N[C@@H](CO)C(=O)N[C@@H](CCCCN)C(=O)N1CCC[C@H]1C(=O)N1CCC[C@H]1C(=O)N[C@@H](C)C(=O)N[C@@H](CCCCN)C(=O)N[C@@H](CC(C)C)C(=O)N[C@@H](CCC(N)=O)C(=O)N1CCC[C@H]1C(=O)N[C@@H](CCCNC(=N)N)C(N)=O)C(C)C
B5: H-PS-S(octanoyl)-FLSPEHQRVQQRKESKSPPAKLQPR-NH2 (peptide)
peptide: H-PSS(Octanoyl)FLSPEHQRVQQRKESKSPPAKLQPR-NH2
SMILES: CCCCCCCC(=O)OC[C@H](NC(=O)[C@H](CO)NC(=O)[C@@H]1CCCN1)C(=O)N[C@@H](Cc1ccccc1)C(=O)N[C@@H](CC(C)C)C(=O)N[C@@H](CO)C(=O)N1CCC[C@H]1C(=O)N[C@@H](CCC(=O)O)C(=O)N[C@@H](Cc1c[nH]cn1)C(=O)N[C@@H](CCC(N)=O)C(=O)N[C@@H](CCCNC(=N)N)C(=O)N[C@H](C(=O)N[C@@H](CCC(N)=O)C(=O)N[C@@H](CCC(N)=O)C(=O)N[C@@H](CCCNC(=N)N)C(=O)N[C@@H](CCCCN)C(=O)N[C@@H](CCC(=O)O)C(=O)N[C@@H](CO)C(=O)N[C@@H](CCCCN)C(=O)N[C@@H](CO)C(=O)N1CCC[C@H]1C(=O)N1CCC[C@H]1C(=O)N[C@@H](C)C(=O)N[C@@H](CCCCN)C(=O)N[C@@H](CC(C)C)C(=O)N[C@@H](CCC(N)=O)C(=O)N1CCC[C@H]1C(=O)N[C@@H](CCCNC(=N)N)C(N)=O)C(C)C
B6: H-PS-S(octanoyl)-FLSPEHQSVQQRKESKKPPAKLQPR-NH2 (peptide)
peptide: H-PSS(Octanoyl)FLSPEHQSVQQRKESKKPPAKLQPR-NH2
SMILES: CCCCCCCC(=O)OC[C@H](NC(=O)[C@H](CO)NC(=O)[C@@H]1CCCN1)C(=O)N[C@@H](Cc1ccccc1)C(=O)N[C@@H](CC(C)C)C(=O)N[C@@H](CO)C(=O)N1CCC[C@H]1C(=O)N[C@@H](CCC(=O)O)C(=O)N[C@@H](Cc1c[nH]cn1)C(=O)N[C@@H](CCC(N)=O)C(=O)N[C@@H](CO)C(=O)N[C@H](C(=O)N[C@@H](CCC(N)=O)C(=O)N[C@@H](CCC(N)=O)C(=O)N[C@@H](CCCNC(=N)N)C(=O)N[C@@H](CCCCN)C(=O)N[C@@H](CCC(=O)O)C(=O)N[C@@H](CO)C(=O)N[C@@H](CCCCN)C(=O)N[C@@H](CCCCN)C(=O)N1CCC[C@H]1C(=O)N1CCC[C@H]1C(=O)N[C@@H](C)C(=O)N[C@@H](CCCCN)C(=O)N[C@@H](CC(C)C)C(=O)N[C@@H](CCC(N)=O)C(=O)N1CCC[C@H]1C(=O)N[C@@H](CCCNC(=N)N)C(N)=O)C(C)C
B7: H-PS-S(O-octyl)-FLSPEHSRPSSRPESSSPPAKLSPR-NH2 (peptide)
peptide: H-PSS(Octyl)FLSPEHSRPSSRPESSSPPAKLSPR-NH2
SMILES: CCCCCCCCOC[C@H](NC(=O)[C@H](CO)NC(=O)[C@@H]1CCCN1)C(=O)N[C@@H](Cc1ccccc1)C(=O)N[C@@H](CC(C)C)C(=O)N[C@@H](CO)C(=O)N1CCC[C@H]1C(=O)N[C@@H](CCC(=O)O)C(=O)N[C@@H](Cc1c[nH]cn1)C(=O)N[C@@H](CO)C(=O)N[C@@H](CCCNC(=N)N)C(=O)N1CCC[C@H]1C(=O)N[C@@H](CO)C(=O)N[C@@H](CO)C(=O)N[C@@H](CCCNC(=N)N)C(=O)N1CCC[C@H]1C(=O)N[C@@H](CCC(=O)O)C(=O)N[C@@H](CO)C(=O)N[C@@H](CO)C(=O)N[C@@H](CO)C(=O)N1CCC[C@H]1C(=O)N1CCC[C@H]1C(=O)N[C@@H](C)C(=O)N[C@@H](CCCCN)C(=O)N[C@@H](CC(C)C)C(=O)N[C@@H](CO)C(=O)N1CCC[C@H]1C(=O)N[C@@H](CCCNC(=N)N)C(N)=O
B8: H-PS-S(octanoyl)-FLSPEHQRVQQRKESKKPPAKLQPS-NH2 (peptide)
peptide: H-PSS(Octanoyl)FLSPEHQRVQQRKESKKPPAKLQPS-NH2
SMILES: CCCCCCCC(=O)OC[C@H](NC(=O)[C@H](CO)NC(=O)[C@@H]1CCCN1)C(=O)N[C@@H](Cc1ccccc1)C(=O)N[C@@H](CC(C)C)C(=O)N[C@@H](CO)C(=O)N1CCC[C@H]1C(=O)N[C@@H](CCC(=O)O)C(=O)N[C@@H](Cc1c[nH]cn1)C(=O)N[C@@H](CCC(N)=O)C(=O)N[C@@H](CCCNC(=N)N)C(=O)N[C@H](C(=O)N[C@@H](CCC(N)=O)C(=O)N[C@@H](CCC(N)=O)C(=O)N[C@@H](CCCNC(=N)N)C(=O)N[C@@H](CCCCN)C(=O)N[C@@H](CCC(=O)O)C(=O)N[C@@H](CO)C(=O)N[C@@H](CCCCN)C(=O)N[C@@H](CCCCN)C(=O)N1CCC[C@H]1C(=O)N1CCC[C@H]1C(=O)N[C@@H](C)C(=O)N[C@@H](CCCCN)C(=O)N[C@@H](CC(C)C)C(=O)N[C@@H](CCC(N)=O)C(=O)N1CCC[C@H]1C(=O)N[C@@H](CO)C(N)=O)C(C)C
B9: H-PS-S(octanoyl)-FLSPEHQRVQQRKESKKPPASLQPR-NH2 (peptide)
peptide: H-PSS(Octanoyl)FLSPEHQRVQQRKESKKPPASLQPR-NH2
SMILES: CCCCCCCC(=O)OC[C@H](NC(=O)[C@H](CO)NC(=O)[C@@H]1CCCN1)C(=O)N[C@@H](Cc1ccccc1)C(=O)N[C@@H](CC(C)C)C(=O)N[C@@H](CO)C(=O)N1CCC[C@H]1C(=O)N[C@@H](CCC(=O)O)C(=O)N[C@@H](Cc1c[nH]cn1)C(=O)N[C@@H](CCC(N)=O)C(=O)N[C@@H](CCCNC(=N)N)C(=O)N[C@H](C(=O)N[C@@H](CCC(N)=O)C(=O)N[C@@H](CCC(N)=O)C(=O)N[C@@H](CCCNC(=N)N)C(=O)N[C@@H](CCCCN)C(=O)N[C@@H](CCC(=O)O)C(=O)N[C@@H](CO)C(=O)N[C@@H](CCCCN)C(=O)N[C@@H](CCCCN)C(=O)N1CCC[C@H]1C(=O)N1CCC[C@H]1C(=O)N[C@@H](C)C(=O)N[C@@H](CO)C(=O)N[C@@H](CC(C)C)C(=O)N[C@@H](CCC(N)=O)C(=O)N1CCC[C@H]1C(=O)N[C@@H](CCCNC(=N)N)C(N)=O)C(C)C

Target: human growth hormone secretagogue receptor type 1a (human, UniProt Q92847 1-366)
Sequence (Q92847 whole entry): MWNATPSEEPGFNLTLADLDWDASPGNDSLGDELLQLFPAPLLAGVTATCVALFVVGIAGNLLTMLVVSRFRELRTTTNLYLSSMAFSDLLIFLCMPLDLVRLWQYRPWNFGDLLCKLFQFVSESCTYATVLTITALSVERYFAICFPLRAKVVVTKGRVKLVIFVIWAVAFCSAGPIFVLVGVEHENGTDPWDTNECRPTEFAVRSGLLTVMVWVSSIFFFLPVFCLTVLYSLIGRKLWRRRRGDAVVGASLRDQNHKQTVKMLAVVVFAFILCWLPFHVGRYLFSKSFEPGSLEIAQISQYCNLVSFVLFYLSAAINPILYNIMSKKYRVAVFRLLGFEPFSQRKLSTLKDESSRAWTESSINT
Assay: cell-based or functional assay

| EC50 (nM); Ca2+ induction in HEK293 cells stably expressing the human ghrelin receptor | Binder |
| --- | --- |
| 0.182 nM | B1 |
| 0.719 nM | B2 |
| 0.168 nM | B3 |
| 0.095 nM | B4 |
| 0.086 nM | B5 |
| 0.149 nM | B6 |
| 0.642 nM | B7 |
| 0.039 nM | B8 |
| 0.183 nM | B9 |
